Results on ten molecules are retold here after publication PMC8083607 (2021).

Holding throughout (test): SPR
Test [1] concerns the target SARS-CoV-2 RBD (recombinant, limits not stated) (SARS-CoV-2, UniProt P0DTC2 333-526).
For test [2], the target named is SARS-CoV-2 NTD (recombinant, limits not stated) (SARS-CoV-2).
Test [3] has as its target SARS-CoV-2 S2 (recombinant) (SARS-CoV-2).

B1: FC11 (antibody, V domains shown)
VH: EVQLLESGGGVVQPGRSLRLSCAASGFTFSYYGMHWVRQAPGTGLEWVAVISYDGSNEYYADSVKGRFTISRDNSKNTLYLQMNSLRAEDTAVYYCAKAMFLGDSSGLTGLDMDVWGQGTTVTVSS
VL: DIELTQSPGTLSLSPGERATLSCRASQSVSSYLAWYQQKPGQAPRLLIYDASNRATGIPARFSGSGSGTDFTLTISSLEPEDFALYYCQQRGNWPPTFGGGTKLEIK
As for B1, the Kd in test [1] was found to be 5.24 nM.

B2: FC07 (antibody, V domains shown)
VH: EVQLLESGGGLVQPGGSLRLSCAASGFTFGSYAMSWVRQAPGKGLEWVSSISGSGGSTYYADSAKGRFTISRDNSKNTLYLQMNSLRAEDTAVYYCAKSPNYDILTGYYNWAGYYFDYWGQGTLVTVSS
VL: DIELTQSPGTLSLSPGDRATLSCRASRGVSSNSLAWYRQRPGESPRLVISGASTRATGIPERFSGSGSGTDFSLSISRLQPEDFAVYYCQQYGSFPFTFGPGTTVDV
Regarding B2, the Kd in test [2] amounted to 63.4 nM.

B3: FC06 (antibody, V domains shown)
VH: EVQLLESGGGVVQPGRSLRLSCAASGFTFSSYAMHWVRQAPGEGLEWVAVISYDGSNKYYADSVKGRFTISRDNSKNTLYLQMNSLRAGDTAVYYCARLNYYGSGFYYRLGDDYWGQGTLVTVSS
VL: DIELTQSPSSLSASEGDRVTITCRASQGIRNDLGWYQQKPGKAPKRLIYGAPSLQSGVPSRFSGSGSGTEFTLTISTLQPEDSATYYCLQHNKYPWTFGQGTKVEIK
With B3, the Kd in test [2] came to 7.49 nM.

B4: FC01 (antibody, V domains shown)
VH: EVQLLESGTEVKKPGSSVKVSCKASGGTFSSYAISWVRQAPGQGLEWMGGIIPILGIANYAQKFQGRVTITADKSTSTAYMELSSLRSEDTAVYYCARERGYSGYGAAYYFDYWGQGTLVTVSS
VL: QSVLTQAPSVSGAPGQSVTISCTGSSSNIGAGYDVHWYQQLPGTAPKLLIYGNNNRPSGVPDRFSGSKSGTSASLAITGLQAEDEADYYCQSYDSSLSKGVFGGGTKLTVL
Take B4: the Kd in test [1] came to 0.628 nM.

B5: FC08 (antibody, V domains shown)
VH: QLLQQSGAEVKKPGSSVKVSCKASGGTFSSYAISWVRQAPGQGLEWMGGIIPIIGIANYAQKFQGRVTITADKSTSTAYMELSSLRSEDTAVYYCARERGYSGYGAAYYFDYWGQGTLVTVSS
VL: SVLTQPPSVSGAPGQRVTISCTGSSSNIGAGYDVHWYQQLPGTAPKLLIYGNSNRPSGVPDRFSGSKSGTSASLAITGLQAEDEADYYCQSYDSSLSGSVFGGGTKLTVL
For B5, the dissociation constant (Kd) in test [1] worked out at 0.298 nM.

B6: FC118 (antibody, V domains shown)
VH: EVQLLESGGGVVQPGRSLRLSCAASGFTFSSYAMHWVRQAPGKGLEWVAVISYDGSNKYYADSVKGRFTISRDNSKNTLYLQMNSLRAEDTAVYYCARARGGSYLYGMDVWGQGAMVTVSS
VL: DIELTQSPSSLAASVGDTVTITCRASQTIGKYLTWYQKKPGRAPDLLIYAASRLQSGVPSRFSGRASGTEFTLTISSLQPEDFATYFCQHTYRTLSFGPGTKVDLK
In the case of B6, the Kd in test [3] is 41.1 nM.

B7: FC124 (antibody, V domains shown)
VH: EVQLLESGGGVVQPGRSLRLSCAASGFTFSSYAMHWVRQAPGKGLEWVALISYDGINKYYADSVNGRFTISRDNSKYTLYLQMNSLRAEDTAVYYCARAHRGSYYYGMDVWGQGTMVTVSS
VL: DIELTQSPGTLSLSPGERATLYCRASQSVSSSYLAWYQQKPGQAPRLLIYGAFGRAAGIPDRFRGSGSGTQFTLTISRLEPEDSAVYFCQQYGQSPLYSFGQGTKLEIK
With B7, the Kd in test [3] was determined as 38.6 nM.

B8: FC122 (antibody, V domains shown)
VH: EVQLLESGGGVVQPGRSLRLSCAASGFTFSSYAMHWVRQAPGKGLEWVALISYDGINKYYADSVNGRFTISRDNSKYTLYLQMNSLRAEDTAVYYCARAHRGSYYYGMDVWGQGTMVTVSS
VL: DIELTQSPSSLSASVGDSVTITCRGSQIISRYLNWYQQKPGKAPKLLIYAASTLQSGVPSRFSGSGSGTEFTLSISSLEPEDFATYYCQQSYAIPYTFGQGTRLEI
Consider B8, for which the Kd in test [3] turned out to be 9.44 nM.

B9: FC120 (antibody, V domains shown)
VH: EVQLLESGAEVKKPGASVKVSCKASGYTFTSYYMHWVRQAPGQGLEWMGIINPSGGSTSYAQKFQGRVTMTRDTSTSTVYMELSSLRSEDTAVYYCARGGGHALDIWGQGTMVTVSS
VL: QSVLTQPPSVSGAPGQKVTISCSGSSSNIGNNYVSWYQQLPGTAPKLLIYDNNKRPSGIPDRFSGSKSGTSATLGITGLQTGDEADYYCGTWDSSLSAWVFGGGTKLTVL
For the molecule B9, in test [3], the Kd worked out at 21.8 nM.

B10: FC05 (antibody, V domains shown)
VH: VQLLEQSGAEVKKPGASVRVSCKVSGYTLPEVAMHWVRQAPGKGLEWMGGFDPEDGETMYAQKFQGRVTMTEDTSTDTAYMELSSLRSEDTAVYYCATTTPFSSSYWFDPWGQGTLVTVSS
VL: QSVLTQAPSVSGAPGQKVTISCSGSSSNIGNNYVSWYQQLPGTAPKLLIYDNNKRPSGIPDRFSGSKSGTSATLGITGLQTGDEADYYCGTWDSSLSAVVFGGGTKLTVL
Turning to B10, the Kd in test [2] was found to be 4.32 nM.
